{
  "source": "paper PMC7338394",
  "parents": {"B1": {"name": "truncated Myc-tagged DIX domain of DVL2 [human] / Dishevelled-2 (DVL2), full-length, Flag-tagged [human] (parent)", "chain 1": "VGETKVIYHLDEEETPYLVKIPVPAERITLGDFKSVLQRPAGAKYFFKSMDQDFGVVKEEISDDNARLPCFNGRVVSWLVSSD", "chain 2": "MAGSSTGGGGVGETKVIYHLDEEETPYLVKIPVPAERITLGDFKSVLQRPAGAKYFFKSMDQDFGVVKEEISDDNARLPCFNGRVVSWLVSSDNPQPEMAPPVHEPRAELAPPAPPLPPLPPERTSGIGDSRPPSFHPNVSSSHENLEPETETESVVSLRRERPRRRDSSEHGAGGHRTGGPSRLERHLAGYESSSTLMTSELESTSLGDSDEEDTMSRFSSSTEQSSASRLLKRHRRRRKQRPPRLERTSSFSSVTDSTMSLNIITVTLNMEKYNFLGISIVGQSNERGDGGIYIGSIMKGGAVAADGRIEPGDMLLQVNDMNFENMSNDDAVRVLRDIVHKPGPIVLTVAKCWDPSPQAYFTLPRNEPIQPIDPAAWVSHSAALTGTFPAYPGSSSMSTITSGSSLPDGCEGRGLSVHTDMASVTKAMAAPESGLEVRDRMWLKITIPNAFLGSDVVDWLYHHVEGFPERREARKYASGLLKAGLIRHTVNKITFSEQCYYVFGDLSGGCESYLVNLSLNDNDGSSGASDQDTLAPLPGATPWPLLPTFSYQYPAPHPYSPQPPPYHELSSYTYGGGSASSQHSEGSRSSGSTRSDGGAGRTGRPEERAPESKSGSGSESEPSSRGGSLRRGGEASGTSDGGPPPSRGSTGGAPNLRAHPGLHPYGPPPGMALPYNPMMVVMMPPPPPPVPPAVQPPGAPPVRDLGSVPPELTASRQSFHMAMGNPSEFFVDVM"}},
  "data": [
    {"variants_of": "B1", "assay": "Co-IP (IP: Flag, immunoblot for Myc-DIX) with densitometry", "settings": "with Dishevelled-2 (DVL2), HEK293T cells, co-immunoprecipitated DIX levels normalized to immunoprecipitated DVL2 levels, three independent experiments, parent: 4.7, read off a plot", "values": [
      {"variant": "chain 1 K58R", "response": 1.1}
    ]}
  ]
}
